Data on 94 variants can be found in the supplement of paper PMC10567573.

The labels stand for the following.
B1: MATN2 (parent)
chain: VNVPGSFVCQCYSGYALAEDGKRC
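Also: lentivirally expressed fusions sorted by FACS into six bins by GFP to DsRed ratio, PSI derived from sequencing read proportions per bin multiplied by bin number.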

This data set covers variants of B1. Put plainly: protein stability index of a GFP-peptide fusion (GPS, HEK-293T) (PSI 1-6); higher = more stable. To be noted: c terminus: a fixed tail appended.
Consider VNVPGSFVCQCYSGYALHEDGKRC [A18H], for which the protein stability index came out at 2.55.
For the variant VNVPGSFVCQCYSGYALTEDGKRC [A18T], the protein stability index was determined as 2.
Turning to VNVPGSFVCQCYSGYALLEDGKRC [A18L], the protein stability index came to 2.32.
Take VNVPGSFVCQCYSGYALPEDGKRC [A18P]: the protein stability index was determined as 1.65.
As to VNVPGSFVCQCYSGYALDEDGKRC [A18D], the protein stability index was determined as 2.36.
Regarding VNVPGSFVCQCYSGYALGEDGKRC [A18G], the protein stability index turned out to be 1.82.
VNVPGSFVCQCYSGYALQEDGKRC [A18Q]: the protein stability index amounted to 2.38.
As for VNVPGSFVCQCYSGYALFEDGKRC [A18F], the protein stability index stood at 2.48.
With VNVPGSFVCQCYSGYALMEDGKRC [A18M], the protein stability index turned out to be 1.34.
Consider VNVPGSFVCQCYSGYALKEDGKRC [A18K], for which the protein stability index stood at 1.73.
On to VNVPGSFVCQCYSGYALSEDGKRC [A18S], for which the protein stability index is 1.93.
For the variant VNVPGSFVCQCYSGYALNEDGKRC [A18N], the protein stability index worked out at 2.09.
Take VNVPGSFVCQCYVGYALAEDGKRC [S13V]: the protein stability index came out at 1.32.
As for VNVPGSFVCQCYQGYALAEDGKRC [S13Q], the protein stability index worked out at 1.5.
Consider VNVPGSFVCQCYIGYALAEDGKRC [S13I], for which the protein stability index was determined as 1.62.
Turning to VNVPGSFVCQCYKGYALAEDGKRC [S13K], the protein stability index stood at 1.58.
Consider VNVPGSFVCQCYTGYALAEDGKRC [S13T], for which the protein stability index was found to be 2.34.
For VNVPGSFVCQCYYGYALAEDGKRC [S13Y], the protein stability index amounted to 1.9.
As for VNVPGSFVCQCYAGYALAEDGKRC [S13A], the protein stability index came to 2.39.
Take VNVPGSFVCQCYEGYALAEDGKRC [S13E]: the protein stability index was determined as 2.1.
For the variant VNVPGSFVCQCYWGYALAEDGKRC [S13W], the protein stability index amounted to 3.15.
On to VNVPGSFVCQCYLGYALAEDGKRC [S13L], for which the protein stability index is 2.52.
In the case of VNVPGSFVCQCYNGYALAEDGKRC [S13N], the protein stability index is 2.45.
As for VNVPGSFVCQCYRGYALAEDGKRC [S13R], the figure is 1.85.
As to VNVPGSFVCQCYGGYALAEDGKRC [S13G], the protein stability index came to 2.33.
VNVPGSFVCQCYCGYALAEDGKRC [S13C]: the protein stability index worked out at 3.25.
As to VNVPGSFVCQCYPGYALAEDGKRC [S13P], the protein stability index was determined as 2.47.
As for VNVPGSFVCQCYDGYALAEDGKRC [S13D], the figure is 2.17; as for VNVPGSFVCQCYSGYALAEMGKRC [D20M], 1.72.
For VNVPGSFVCQCYSGYALAEEGKRC [D20E], the protein stability index is 1.85.
On to VNVPGSFVCQCYSGYALAEFGKRC [D20F], for which the protein stability index was determined as 2.57.
As to VNVPGSFVCQCYSGYALAEIGKRC [D20I], the protein stability index was found to be 2.81.
With VNVPGSFVCQCYSGYALAEQGKRC [D20Q], the protein stability index was found to be 1.37.
As for VNVPGSFVCQCYSGYALAECGKRC [D20C], the figure is 3.42.
As for VNVPGSFVCQCYSGYALAEAGKRC [D20A], the protein stability index was found to be 1.9.
On to VNVPGSFVCQCYSGYALAEGGKRC [D20G], for which the protein stability index worked out at 1.48.
With VNVPGSFVCQCYSGYALAELGKRC [D20L], the protein stability index is 1.11.
As for VNVPGSFVCQCYSGYALAENGKRC [D20N], the figure is 1.34; as for VNVPGSFVCQCYSGYALAEHGKRC [D20H], 2.1; as for VNVPGSFVCQCYSGYALAEKGKRC [D20K], 1.65.
The result for VNVPGSFVCQCYSGYALAERGKRC [D20R] reads 1.58.
For VNVPGSFVCQCYSGYALAEPGKRC [D20P], the protein stability index stood at 2.42.
Consider VNVPGSFVCSCYSGYALAEDGKRC [Q10S], for which the protein stability index is 2.29.
As to VNVPGSFVCWCYSGYALAEDGKRC [Q10W], the protein stability index worked out at 2.32.
As to VNVPGSFVCFCYSGYALAEDGKRC [Q10F], the protein stability index amounted to 2.64.
VNVPGSFVCYCYSGYALAEDGKRC [Q10Y]: the protein stability index stood at 1.97.
As for VNVPGSFVCLCYSGYALAEDGKRC [Q10L], the figure is 2.46; as for VNVPGSFVCRCYSGYALAEDGKRC [Q10R], 2.01; as for VNVPGSFVCMCYSGYALAEDGKRC [Q10M], 2.88.
VNVPGSFVCPCYSGYALAEDGKRC [Q10P]: the protein stability index amounted to 2.15.
For the variant VNVPGSFVCKCYSGYALAEDGKRC [Q10K], the protein stability index amounted to 1.7.
On to VNVPGSFVCECYSGYALAEDGKRC [Q10E], for which the protein stability index was found to be 1.55.
Regarding VNVPGSFVCGCYSGYALAEDGKRC [Q10G], the protein stability index is 1.65.
On to VNVPGSFVCNCYSGYALAEDGKRC [Q10N], for which the protein stability index turned out to be 2.31.
With VNVPGSFVCTCYSGYALAEDGKRC [Q10T], the protein stability index turned out to be 2.52.
Regarding VNVPGSFVCHCYSGYALAEDGKRC [Q10H], the protein stability index was 1.78.
VNVPGSFVCVCYSGYALAEDGKRC [Q10V]: the protein stability index turned out to be 2.08.
Take VNVPGSFVCQCYSGYAIAEDGKRC [L17I]: the protein stability index turned out to be 1.67.
As for VNVPGSFVCQCYSGYACAEDGKRC [L17C], the figure is 3.36; as for VNVPGSFVCQCYSGYANAEDGKRC [L17N], 1.91.
The result for VNVPGSFVCQCYSGYAMAEDGKRC [L17M] reads 1.81; that for VNVPGSFVCQCYSGYAPAEDGKRC [L17P], 2.46.
As for VNVPGSFVCQCYSGYAEAEDGKRC [L17E], the figure is 2.58.
Regarding VNVPGSFVCQCYSGYAWAEDGKRC [L17W], the protein stability index is 1.92.
As for VNVPGSFVCQCYSGYAVAEDGKRC [L17V], the protein stability index was found to be 2.3.
As for VNVPGSFVCQCYSGYADAEDGKRC [L17D], the protein stability index is 2.51.
Take VNVPGSFVCQCYSGYAYAEDGKRC [L17Y]: the protein stability index came to 2.44.
As for VNVPGSFVCQCYSGYAFAEDGKRC [L17F], the protein stability index is 1.03.
For VNVPGSFVCQCYSGYAQAEDGKRC [L17Q], the protein stability index was 2.26.
As for VNVPGSFVCQCYSGYARAEDGKRC [L17R], the protein stability index is 2.54.
Consider VNVPGSFVCQCYSGYAKAEDGKRC [L17K], for which the protein stability index worked out at 1.81.
For the variant VNVPGSFVCQCYSGYATAEDGKRC [L17T], the protein stability index worked out at 1.75.
For the variant VNVPGSFVCQCYSGYASAEDGKRC [L17S], the protein stability index was 1.57.
The result for VNVPGSFVCQCYSGYAGAEDGKRC [L17G] reads 2.04; that for VNVPGSFVCQCYSGYAAAEDGKRC [L17A], 2.85; that for VNVPGSFVCQCYSGYAHAEDGKRC [L17H], 2.27.
With VNVPGSFVCQCYSGYHLAEDGKRC [A16H], the protein stability index came out at 2.77.
In the case of VNVPGSFVCQCYSGYTLAEDGKRC [A16T], the protein stability index amounted to 1.93.
Regarding VNVPGSFVCQCYSGYYLAEDGKRC [A16Y], the protein stability index worked out at 1.1.
As to VNVPGSFVCQCYSGYMLAEDGKRC [A16M], the protein stability index turned out to be 1.79.
Turning to VNVPGSFVCQCYSGYSLAEDGKRC [A16S], the protein stability index was found to be 1.84.
Regarding VNVPGSFVCQCYSGYKLAEDGKRC [A16K], the protein stability index stood at 1.91.
As for VNVPGSFVCQCYSGYLLAEDGKRC [A16L], the figure is 1.73; as for VNVPGSFVCQCYSGYFLAEDGKRC [A16F], 2.42; as for VNVPGSFVCQCYSGYVLAEDGKRC [A16V], 1.62.
With VNVPGSFVCQCYSGYCLAEDGKRC [A16C], the protein stability index was 3.35.
Consider VNVPGSFVCQCYSGYDLAEDGKRC [A16D], for which the protein stability index came out at 2.17.
In the case of VNVPGSFVCQCYSGYGLAEDGKRC [A16G], the protein stability index turned out to be 2.58.
As for VNVPGSFVCQCYSGYPLAEDGKRC [A16P], the protein stability index was 1.49.
As for VNVPGSFVCQCYSGYRLAEDGKRC [A16R], the figure is 1.52; as for VNVPGSFVCQCYSGYQLAEDGKRC [A16Q], 1.97.
The result for VNVPGSFVCQCYSGYWLAEDGKRC [A16W] reads 1.05; that for VNVPGSFVCQCYSGYILAEDGKRC [A16I], 2.11.
The result for VNVPGSFVCQCYSGYNLAEDGKRC [A16N] reads 1.45.
